According to paper PMC9841405:
Residue numbers refer to the chain shown, from its start.

T1: AtTCP10-DBD (UniProt O82277 1-87)
T1 sequence: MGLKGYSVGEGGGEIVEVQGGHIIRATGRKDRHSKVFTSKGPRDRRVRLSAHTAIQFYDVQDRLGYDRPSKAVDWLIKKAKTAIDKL

T2: AtTCP10-DBD DRH mutant (UniProt O82277 1-87, D31A;R32A;H33A)
T2 sequence: T1 sequence with D31A, R32A, H33A

T3: AtTCP10-DBD RR mutant (UniProt O82277 1-87, R46A;R48A)
T3 sequence: T1 sequence with R46A, R48A

T4: AtTCP10-DBD DRH RR mutant (UniProt O82277 1-87, D31A;R32A;H33A;R46A;R48A)
T4 sequence: T1 sequence with D31A, R32A, H33A, R46A, R48A

B1: one-site class I DNA (dsDNA)
DNA 1: ATAGAGGTCCGTGT
DNA 2: TACACGGACCTCTA
B2: two-site class II DNA (dsDNA)
DNA 1: ATGTGGTCCCGTGT
DNA 2: TACACGGGACCACA
B3: three-site class II DNA (dsDNA)
DNA 1: ATGTGGTCCCCACT
DNA 2: TAGTGGGGACCACA
B4: one-site class II DNA (dsDNA)
DNA 1: ATAGAGTCCCGTGT
DNA 2: TACACGGGACTCTA
B5: two-site class I DNA (dsDNA)
DNA 1: ATGTGGGTCCGTGT
DNA 2: TACACGGACCCACA
B6: three-site class I DNA (dsDNA)
DNA 1: ATGTGGGTCCCACT
DNA 2: TAGTGGGACCCACA

Tests used:
AtTCP15-DBD [1] = target: T5, AtTCP15-DBD (UniProt Q9C9L2 51-113); assay: EMSA
AtTCP10-DBD = target: T1, AtTCP10-DBD; assay: ITC
AtTCP10-DBD DRH mutant [2] = target: T2, AtTCP10-DBD DRH mutant; assay: EMSA
AtTCP10-DBD RR mutant = target: T3, AtTCP10-DBD RR mutant; assay: ITC
[3] = target: T4, AtTCP10-DBD DRH RR mutant; assay: ITC
AtTCP10-DBD DRH mutant [4] = target: T2, AtTCP10-DBD DRH mutant; assay: ITC
AtTCP15-DBD [5] = target: T5, AtTCP15-DBD; assay: ITC

Row | Binder | Kd (AtTCP10-DBD) | binding result (AtTCP10-DBD DRH mutant [2]) | Kd (AtTCP15-DBD [5]) | also measured
1 | B1 |  |  |  | binding result (AtTCP15-DBD [1]): binds
2 | B2 | 351 nM | binds |  | 
3 | B3 | 8.5 nM |  |  | Kd (AtTCP10-DBD RR mutant): 1130 nM; Kd [3]: 1620 nM; Kd (AtTCP10-DBD DRH mutant [4]): 353 nM
4 | B4 | 366 nM | binds |  | 
5 | B5 |  |  | 109 nM | 
6 | B6 |  |  | 38.3 nM | 
